These are literature values, as cited in paper PMC2904371.

The series concerns the target Vinculin tail Vd5 (UniProt P18206).

For “Vinculin head Vd1-Vd4 (from UniProt P18206)”, the equilibrium dissociation constant (Kd) (in general, the concentration at which binding is half-saturated) is 1 nM.
